Laboratory results as given in article PMC5372681, “Study of Different Variants of Mo Enzyme crARC and the Interaction with Its Partners crCytb5-R and crCytb5-1” (International Journal of Molecular Sciences, 2017).

Key:
[1] = target: crCytb5-1, Chlamydomonas reinhardtii cytochrome b5-1 (Chlamydomonas reinhardtii)
[2] = target: crCytb5-R, Chlamydomonas reinhardtii NADH cytochrome b5 reductase (Chlamydomonas reinhardtii)
[3] = target: crARC variant F210A (Chlamydomonas reinhardtii); assay: SEC; each protein loaded alone; Superdex 200 10/300 GL, 50 mM phosphate buffer pH 7.2, 0.15 M NaCl, 0.75 mL/min; Mw from a calibration curve of marker proteins
[4] = target: crARC variant R276A (Chlamydomonas reinhardtii); assay: as above
[5] = target: crCytb5-1, Chlamydomonas reinhardtii cytochrome b5-1 (Chlamydomonas reinhardtii); assay: as above
[6] = target: crARC, Chlamydomonas reinhardtii mARC (mitochondrial Amidoxime Reducing Component), wild type (Chlamydomonas reinhardtii); assay: SEC; two proteins incubated together for 10 min, then loaded; 15 pmol of each; Superdex 200 10/300 GL, 50 mM phosphate buffer pH 7.2, 0.15 M NaCl, 0.75 mL/min; peak fractions checked by SDS-PAGE
[7] = target: crCytb5-R, Chlamydomonas reinhardtii NADH cytochrome b5 reductase (Chlamydomonas reinhardtii); assay: as above

crARC variant E267A (enzyme)
NADH-dependent HAP reduction activity of the crARC variant with crCytb5-1 and crCytb5-R (% of the wild type activity) [1]: 25

crARC variant E267A (enzyme; the values are: NADH-dependent HAP reduction activity (% of wild type))
NADH-dependent HAP reduction activity of the crARC variant with crCytb5-1 and crCytb5-R [2]: 25%

crARC variant F210A (enzyme)
times more oligomeric forms than the wild type [3]: 10 times

crARC variant R276A (enzyme)
stoichiometry N [4]: 30 crARC units

crCytb5-1, Chlamydomonas reinhardtii cytochrome b5-1 (natural protein)
stoichiometry N [5]: 2
stoichiometry N (crCytb5-1 per crARC) [6]: 2
stoichiometry N (crCytb5-1 per crCytb5-R) [7]: 4
